The source of these data is patent US5972698 (Novartis Corporation, dated 1999).

In this assay the target is bovine trypsin (bovine, UniProt P00760). As to the kind of experiment: equilibrium dissociation constants (Ki) from enzyme inhibition.

B1: recombinant leech-derived tryptase inhibitor form C, secreted by Saccharomyces cerevisiae (strain S-78 with pRM 9.1.4) (other)
chain: KKVCACPKILKPVCGSDGRTYANSCIARCNGVSIKSEGSCPTGILN
As to B1, the binding result was “binds”.
